Source: publication PMC545490, “Mapping and mutation of the conserved DNA polymerase interaction motif (DPIM) located in the C-terminal domain of fission yeast DNA polymerase δ subunit Cdc27” (BMC Molecular Biology, 2004)

Target: T1, LexA-Pol1-278-527 (S. pombe, UniProt P28040 278-527)
T1 construct: Pol1, catalytic subunit of DNA polymerase α, S. pombe, amino acids 278–527; source: yeast two-hybrid fusion (pBTM116, S. cerevisiae CTY10-5d)
T1 sequence (looked up): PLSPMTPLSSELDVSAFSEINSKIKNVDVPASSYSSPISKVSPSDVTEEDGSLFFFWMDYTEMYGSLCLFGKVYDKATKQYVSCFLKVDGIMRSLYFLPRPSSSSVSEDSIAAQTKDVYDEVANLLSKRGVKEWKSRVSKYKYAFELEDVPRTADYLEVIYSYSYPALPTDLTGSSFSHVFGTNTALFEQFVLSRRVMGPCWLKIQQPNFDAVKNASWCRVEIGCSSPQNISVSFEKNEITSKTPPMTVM
Experiment: two-hybrid; Gal4 AD prey (pACT2) and LexA bait (pBTM116) in S. cerevisiae lexA op-lacZ strain CTY10-5d; β-galactosidase activity in Miller units
Conditions: partners not purified

B1: Gal4-Cdc27-273-352-P7 (domain or fragment, S. pombe, UniProt P30261 273-352, looked up)
chain: TEAKSAAPDEPQEIIKSVSGGKRRGKRKVKKYATTKDEEGFLVTKEEEVWESFSAAANISTGTSNVVRNKPTTVNIATKK
notes: positions worked out from oligonucleotides CDC27-P6F and CDC27-P7F and the printed DEE 309–311; also called Cdc27-P7; source: yeast two-hybrid fusion (pACT2, S. cerevisiae CTY10-5d)
Q: For B1, which “strength of the interaction, percent of the wild-type value” is on record?
A: Its value is ~10 % of wild-type.
